Data set [1] concerns the target T1, CEP55 (C1) hinge region (Mus musculus, UniProt Q8BT07).
T1 construct: an 80-amino-acid fragment of CEP55 (C1) that contains the hinge region; expressed in transfected cells; host or cells: yeast (Matchmaker Two-Hybrid System 3, Clontech)
T1 sequence (Q8BT07 157-235 limits assumed): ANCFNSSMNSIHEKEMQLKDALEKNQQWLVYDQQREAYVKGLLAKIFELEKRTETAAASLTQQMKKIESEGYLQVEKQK
Briefly: Yeast two-hybrid assay of truncated TEX14 with the CEP55 hinge fragment C1. The format is binding. The note with it: 80-amino-acid fragment of CEP55 containing the hinge region; FIG. 3A to C. As to the method:
(§1) Protein-protein interactions were evaluated by using the Matchmaker Two-Hybrid System 3 (Clontech) as described previously (10). Mouse full-length TEX14 and MLKP1 were previously subcloned into the Matchmaker GAL4 two-hybrid pGBKT7 and pGADT7 vectors (10). The constructs of full-length mouse and human CEP55, human TEX14, truncated mouse CEP55-C1, and truncated mouse TEX14-T1, T2, T1[…]T2, T3, T4, and T4-C were made by using the Matchmaker GAL4 two-hybrid pGBKT7 bait vector and pGADT7 prey vectors. Some Y2H interactions were examined with an oxygen biosensor assay (Clontech PT3584-1) that measured the fluorescence emitted by an oxygen-sensing platform that detects GAL4.
To determine the relevance of this GPPX3Y motif as it relates to the interaction of TEX14 with CEP55, we performed yeast two-hybrid assays with mouse TEX14 amino acids 756 to 815 that contain the GPPX3Y motif (FIG. 3A). These 60 amino acids interacted with full-length CEP55 (FIGS. 3B and C). Conversely, an 80-amino-acid fragment of CEP55 (C1) that contains the hinge region interacted with full-length TEX14, the C terminus (T3), and GPPX3Y-containing fragment (T4) but not a shorter sequence that lacked the GPPX3Y motif (T4-C) (FIG. 3A to C). Thus, similar GPPX3Y-containing regions of TEX14, ALIX, and TSG101 interact with the hinge region of CEP55.

Data set [2] deals with the molecule itself. Put plainly: yeast two-hybrid, full-length proteins, oxygen biosensor and selection plates. On the procedure: (A) Immunoprecipitation (IP) of FLAG-TEX14 and/or MYC-CEP55 from HEK293T cells, followed by Western blot analysis with the antibodies as shown. Immunoprecipitation of protein G (lanes G) is the control. (B) Yeast two-hybrid analyses using vectors encoding full-length mouse TEX14, MKLP1, CEP55, and positive and negative controls. The relative ratios of TEX14-TEX14, TEX14-MKLP1, and TEX14-CEP55 interactions were determined by using an oxygen-biosensor system. (C) Yeast two-hybrid interactions of mouse and human full-length TEX14 and CEP55. (a) Yeast were stably transformed with vectors and plated for yeast two-hybrid analysis as depicted. SV40 T antigen with p53 and SV40 T antigen with lamin C were used as positive and negative controls, respectively. (b) Interactions between the two-hybrid proteins are evident by colony growth and blue color on selection plates.
as §1
Since both CEP55 and TEX14 interact with MKLP1 (10, 22), it was determined whether CEP55 and TEX14 are components of the intercellular bridge as direct or indirect interactors. The inventors first overexpressed full-length FLAG-TEX14 and MYC-CEP55 constructs in HEK293T cells (FIG. 2A). […] Likewise, when the inventors immunoprecipitate with anti-MYC antibody, they immunoprecipitate both MYC-CEP55 and FLAG-TEX14.

As for “T4: GPPX3Y-containing fragment of mouse TEX14, amino acids 756 to 815 (EVEELEWAQKELDSQCSSLRDASLKFANAKFQPAVGPPSLAYLPPVMQLPGLKQPENGGT; UniProt Q7M6U3 756-815, looked up, fragment)”, the “yeast two-hybrid interaction with CEP55 fragment C1” value in data set [1] is “interacted”.

B1: full-length mouse TEX14 (other, UniProt Q7M6U3 1-1450, looked up)
chain: MSRGAPFPVPCPVLLGTFTDDSLEAQLHEYAKQGNCVKLKKILKKGVCVDAVNTQGQSALFVAALLGHVKLVDVLVDYGSDPNHRCFDGSTPVHAAAFSGNQWILSKLLTAGGDLRLHDEKGRNPQAWALTAGKDRSTQMVEFMQRCTSHMKAIIQGFSYDLLKKIDSPQRLIGSPPWFGSLIQGSPNSSPNRQLKPGIISAQNIYSFGFGKFYLTSGMQLTYPGSLPVIGEKEVVQADDEPTFSFFSGPYMVMTNLVWNRSRVTVKELNLPTRPHCSRLRLADLLIAEQEHSSNLRHPNLLQLMAVCLSRDLEKIRLVYERITVGTLFSVLHERRSQFPVLHMEVIVHLLLQVADALIYLHSRGFIHRSLSSYAVHIVSAGEARLTNLEYLTESQDSGAHRNVTRMPLPTQLYNWAAPEVVLQKAATVKSDIYSFSVIIQEILTDSIPWNGLDGSLVKETIALGNYLEADVRLPEPYYDIVKSGIHAKQKNRTMNLQDIRYILKNDLKEFIGAQKTQPTESPRGQSYEPHPDVNICLGLTSEYQKDPPDLDIKELKEMGSQPHSPTDHSFLTVKPTLAPQTLDSSLSAQKPDNANVPSPPAACLAEEVRSPTASQDSLCSFEINEIYSGCLTLGTDKEEECLGTAASPEGDRPNQGDELPSLEEELDKMERELHCFCEEDKSISEVDTDLLFEDDDWQSDSLGSLNLPEPTREAKGKTSSWSKTDEYVSKCVLNLKISQVMMQQSAEWLRKLEQEVEELEWAQKELDSQCSSLRDASLKFANAKFQPAVGPPSLAYLPPVMQLPGLKQPENGGTWLTLARSPGNEREFQEGHFSKKPEKLSACGWKPFTQVSEESRGDCSELNNQLPTLRGPGKQSTGEQLPSTQEARESLEKNTNQNSRSMASVSSEIYATKSRNNEDNGEAHLKWRLAVKEMAEKAVSGQLLLPPWNPQSSAPFESKVENESTPLPRPPIRGPESTEWQHILEYQRENDEPKGNTKFGKMDNSDCDKNKHSRWTGLQRFTGIRYPFFRNHEQPEQNEASQASCDTSVGTEKFYSTSSPIGDDFERFQDSFAQRQGYVEENFQIREIFEKNAEILTKPQFQAIQCAEDKQDETLGETPKELKEKNTSLTDIQDLSSITYDQDGYFKETSYKTPKLKHAPTSASTPLSPESISSAASHYEDCLENTTFHVKRGSTFCWNGQEAMRTLSAKFTTVRERAKSLESLLASSKSLPAKLTDSKRLCMLSETGSSNVSAAFVTSTHATKRKSLPRELAEATSQQHLDELPPPAQELLDEIEQLKQQQVSSLASHENTARDLSVTNKDKKHLEEQETNSSKDSSFLSSREIQDLEDTERAHSSLDEDLERFLQSPEENTALLDPTKGSTREKKNKDQDVVEQKRKKKESIKPERRESDSSLGTLEEDELKPCFWKRLGWSEPSRIIVLDQSDLSD
notes: whole, on cells; In the yeast two-hybrid assay it stood as a fusion with a GAL4 domain (pGBKT7 bait or pGADT7 prey vector)
B1: the binding result in data set [2] is listed as “binds”.

For the origin of these results see patent US20130225503A1, “TEX14 PEPTIDES AS NOVEL ANTITUMOR AGENTS” (Baylor Licnensing Group, priority 2009, published 2013).
